Experimental data reported in patent US20070237759A1.

How the values were obtained:
[1] = biological target: PAR-2 expressed on cells, species not stated (Homo sapiens (Human)) (UniProt P55085); experiment: cell-based or functional assay
[2] = biological target: human PAR-2 (proteinase activated receptor-2) (human) (UniProt P55085); experiment: cell-based or functional assay

Q: Which results are given for SAM11 monoclonal antibody to PAR-2?
A: IC50 KNRK, FLIPR Ca2+ mobilization [1]: > 2 µM; IC50 HCT-116, FLIPR Ca2+ mobilization [2]: > 2 µM
